Measured values taken from patent US20220332818A1 (AstraZeneca / MedImmune, published 2022).

Biological target: T1, TIM-3 IgV domain (human) (human, UniProt Q8TDQ0 22-130)
T1 construct: also called IgV domain of TIM-3; human TIM-3 IgV
T1 sequence: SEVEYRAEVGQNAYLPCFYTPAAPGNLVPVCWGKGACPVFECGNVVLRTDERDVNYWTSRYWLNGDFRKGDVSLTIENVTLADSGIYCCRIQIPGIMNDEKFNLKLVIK
Test: co-crystal X-ray structure
Protocol: To obtain the co-crystal structure of the TIM-3 IgV domain with antigen-binding fragments (Fabs), all proteins were expressed in mammalian cells and purified to homogeneity. Purified TIM-3 IgV domain and Fabs (one at a time) were incubated at a slight excess of IgV domain, followed by size exclusion purification of the complex. Crystallization of the complexes was performed at room temperature. The X-ray diffraction data was collected at the Stanford Synchrotron Radiation Lightsource (SSRL, Menlo Park, Calif., USA). Structures of the complexes were solved by molecular replacement.

- binding result: binds
B1: Fab of anti-TIM3 antibody #62 (Fab, V domains shown)
VH: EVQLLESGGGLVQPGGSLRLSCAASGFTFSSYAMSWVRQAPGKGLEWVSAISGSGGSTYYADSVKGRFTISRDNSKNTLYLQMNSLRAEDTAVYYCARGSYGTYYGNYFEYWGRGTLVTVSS
VL: QTVLTQPPSVSVAPGKTASISCGGDNIGGKSVHWYQQKPGQAPVLVIYYDSDRPSGIPQRFSGSNSGNTATLTIHRVEAGDEADYYCQVLDRRSDHWLFGGGTKLTVL
notes: Fab expressed in mammalian cells for co-crystallisation; also called clone 62
